Reference: patent US9696316B2, “Conformationally dynamic peptides” (SYSTEM OF SYSTEMS ANALYTICS, INC., priority 2009, dated 2017)
“Also recorded” adds a separate entry of the source.

Key:
Assay type in all cases: binding
[1] = target: Aβ42 Fiber (Homo sapiens, UniProt P05067); assay: In vitro centrifugation-based interaction assay (insoluble complexes); conditions: 40% TFE, 3 hours incubation, 17,000×g 30 minutes
Description: In this assay, soluble peptide probes are combined with insoluble target protein fibers in an in vitro centrifugation-based interaction assay. Peptide probe that binds to the target protein will be detected in an insoluble pellet, which may be isolated using centrifugation. […] Aβ42 Fiber (target protein) and peptide probe (SEQ ID NO:1) are incubated for 3 hours in the presence of increasing amounts of trifluoroethanol (TFE). The samples are centrifuged at 17,000×g for 30 minutes, and the pellets are denatured in sample buffer and analyzed by SDS-PAGE. Reference samples (Input) are shown for comparison.

[2] = target: biotinylated Aβ42 oligomers (Homo sapiens, UniProt P05067); assay: In vitro affinity chromatography-based interaction assay (streptavidin beads); conditions: 4 μM probe
Description: In this assay, soluble peptide probes are combined with, for example, soluble target protein oligomers in an in vitro affinity chromatography-based interaction assay. For this example, target protein is labeled with an affinity molecule, such as biotin, and incubated with a labeled peptide probe. After incubation, the mixture is incubated with the capture moiety, such as streptavidin, on a support, for example a column or beads, such that the target protein is captured. After washing of unbound material, the support can be examined for detection of the labeled peptide probe, which would indicate the presence of bound target protein-peptide probe complexes on the support. Alternatively, the bound material may be eluted and then examined for detection of the labeled peptide probe. Again, detection of the labeled peptide probe would indicate the presence of target protein-peptide probe complexes in the eluant. FIGS. 5A and 15A illustrate an affinity chromatography assay using biotin-labeled target protein and streptavidin-coated beads. This type of assay is useful, for example, for assessing the efficacy of a given peptide probe. […] The beads are washed with PBS to remove unbound material and the captured material is analyzed by SDS-PAGE. […] […]

[3] = target: Aβ fibers (Homo sapiens, UniProt P05067); assay: Aβ fiber assay in 40% TFE; conditions: di-pyrene labeled
Excerpt: An Aβ fiber assay may be conducted in an organic solvent, such as 40% TFE. […] This conformation is associated with the monomer or self fluorescence of the pyrene moieties (370-410 nm; see FIG. 6). […] This conformation is associated with the excimer fluorescence of the pyrene moieties (430-530 nm; see FIG. 6).

[4] = system: fibrillar amyloid target protein; assay: Signal gain on conformational change in the presence of fibrillar amyloid
Description: Peptide Probe 22 (SEQ ID NO:2, 2 μM) labeled at each terminus with pyrene is incubated in 0 to 80% TFE in tris buffer (10 mM Tris, pH 7.0) for 30 min. The reaction is measured by TECAN fluorimeter, and the excimer:monomer fluorescence ratio is recorded. […] When tested for the ability to undergo conformational change in the presence of a fibrillar amyloid target protein, Peptide 22 performs 2.6 times greater than the reference peptide (SEQ ID NO:1).

[5] = target: T1, Aβ42 oligomer (Homo sapiens, UniProt P05067); assay: CD analysis of peptide probe with target protein; conditions: 10 mM sodium phosphate pH 7.0, 3 hours
Excerpt: The conformation of the peptide probe bound to the target protein can be assessed by CD analysis. […] The peptide alone is highly alpha helical (36%). Upon mixing of Peptide 38 with the target protein, the peptide undergoes a conformation shift that results in increased β-sheet conformation, and decreased α helix conformation. That is, the secondary structure of Peptide 38 is altered such that the proportion of a helix is halved (18%), while the proportion of β-sheet structure is enhanced from 20% to 31%. […] Circular dichroism (CD) analysis is used to determine the secondary structure of Peptide 22, synthetic Aβ42 oligomer, and a mixture thereof. Samples are incubated in 10 mM sodium phosphate (pH 7.0) for 3 hours at room temperature before measuring CD. For each sample, the relative ellipticity is evaluated from 190-260 nm. […] Each data set represents the average of three separate spectral scans.

[6] = target: T1, Aβ42 oligomer; assay: Aqueous Aβ oligomer assay, pyrene fluorescence
Excerpt: The conformation of peptide probe bound to the target protein can also be detected by measuring pyrene fluorescence, on the peptide alone and in combination with the target protein. […] The excimer fluorescence associated with the β-sheet conformation has a different wavelength than the monomer fluorescence associated with the alpha-helix conformation, and the excimer:monomer fluorescence ratio is 9:1. […] The addition of Aβ42 oligomer target protein results in a dose-dependent shift of the excimer:monomer fluorescence ratio to 20:1 at the highest Aβ42 oligomer concentration (0.3 μM). This change in excimer:monomer fluorescence ratio reflects a corresponding conformational change in the peptide, that results in increased β-sheet conformation, and decreased α helix conformation.
An Aβ oligomer assay may be conducted in an aqueous solvent, such as water. […] Upon introduction of Aβ oligomer, the fluorescence profile shifts to primarily self-fluorescence (monomeric) (see FIG. 11), which is associated with reduced β-sheet structure, or increased alpha helix structure.
As discussed above, Peptide 22 (SEQ ID NO: 2) undergoes a conformational change upon interaction with Aβ oligomer. FIG. 11 illustrates the fluorescence spectra for Peptide 22 labeled at each terminus with pyrene and incubated in aqueous conditions for several hours at room temperature in 10 mM Hepes (pH 7.0). […] (solid line=Time 0; dashed line=3 hours; dotted line=18 hours).
(§1) Peptide 22 (100 nM) is incubated in water for 15 hours at room temperature with equimolar concentrations ([…]) of several potential Aβ substrates: Aβ42 oligomer (type 1); Aβ42 oligomer (type 2); Aβ1-42 monomer; Aβ1-40 monomer; Aβ1-42 fiber; Aβ1-40 fiber; bovine serum albumin (control substrate); and carbonic anhydrase (control substrate).
With reference to FIG. 13A, Peptide 22 (70 nM) is incubated with […] synthetic Aβ42 oligomer at 25 C, and fluorescence emission spectra is recorded after 3 hours incubation. […] (solid line—no Aβ42 oligomer; dashed/dot line—30 nN Aβ42 oligomer; large dashed line—100 nN Aβ42 oligomer; small dashed line—300 nN Aβ42 oligomer)

[7] = target: T2, Aβ1-40 fiber (Homo sapiens, UniProt P05067); assay: Specificity assay, pyrene fluorescence; conditions: 100 nM peptide, water, 15 hours, 0-300 nN substrate
T2 construct: Aβ1-42 monomer; Aβ1-40 monomer; Aβ1-42 fiber; Aβ1-40 fiber
Description: as §1

[8] = target: T3, Aβ1-40 monomer (Homo sapiens, UniProt P05067); assay: Specificity assay, pyrene fluorescence; conditions: 100 nM peptide, water, 15 hours, 0-300 nN substrate
T3 construct: Aβ1-42 monomer; Aβ1-40 monomer; Aβ1-42 fiber; Aβ1-40 fiber
Description: as §1

[9] = target: T4, Aβ1-42 fiber (Homo sapiens, UniProt P05067); assay: Specificity assay, pyrene fluorescence; conditions: 100 nM peptide, water, 15 hours, 0-300 nN substrate
T4 construct: Aβ1-42 monomer; Aβ1-40 monomer; Aβ1-42 fiber; Aβ1-40 fiber
Description: as §1

[10] = target: T5, Aβ1-42 monomer (Homo sapiens, UniProt P05067); assay: Specificity assay, pyrene fluorescence; conditions: 100 nM peptide, water, 15 hours, 0-300 nN substrate
T5 construct: Aβ1-42 monomer; Aβ1-40 monomer; Aβ1-42 fiber; Aβ1-40 fiber
Description: as §1

[11] = target: bovine serum albumin (Bos taurus, UniProt P02769); assay: Specificity assay, pyrene fluorescence (control substrate); conditions: 100 nM peptide, water, 15 hours, 0-300 nN substrate
Description: as §1

[12] = system: carbonic anhydrase; assay: as above; conditions: 100 nM peptide, water, 15 hours, 0-300 nN substrate
Description: as §1

T1 sequence (P05067 672-713 limits assumed): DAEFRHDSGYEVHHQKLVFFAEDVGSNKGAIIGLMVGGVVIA
T2 sequence (P05067 672-711 limits assumed): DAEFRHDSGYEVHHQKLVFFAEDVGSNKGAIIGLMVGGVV
T5 sequence (P05067 672-713 limits assumed): as the sequence (P05067 672-713 limits assumed) above
biotinylated Aβ42 oligomers, sequence (P05067 672-713 limits assumed): as above
Aβ fibers, sequence (P05067 672-713 limits assumed): as above
T3 sequence (P05067 672-711 limits assumed): as the sequence (P05067 672-711 limits assumed) above
T4 sequence (P05067 672-713 limits assumed): as the sequence (P05067 672-713 limits assumed) above
Aβ42 Fiber, sequence (P05067 672-713 limits assumed): as above
bovine serum albumin, sequence (P02769 25-607): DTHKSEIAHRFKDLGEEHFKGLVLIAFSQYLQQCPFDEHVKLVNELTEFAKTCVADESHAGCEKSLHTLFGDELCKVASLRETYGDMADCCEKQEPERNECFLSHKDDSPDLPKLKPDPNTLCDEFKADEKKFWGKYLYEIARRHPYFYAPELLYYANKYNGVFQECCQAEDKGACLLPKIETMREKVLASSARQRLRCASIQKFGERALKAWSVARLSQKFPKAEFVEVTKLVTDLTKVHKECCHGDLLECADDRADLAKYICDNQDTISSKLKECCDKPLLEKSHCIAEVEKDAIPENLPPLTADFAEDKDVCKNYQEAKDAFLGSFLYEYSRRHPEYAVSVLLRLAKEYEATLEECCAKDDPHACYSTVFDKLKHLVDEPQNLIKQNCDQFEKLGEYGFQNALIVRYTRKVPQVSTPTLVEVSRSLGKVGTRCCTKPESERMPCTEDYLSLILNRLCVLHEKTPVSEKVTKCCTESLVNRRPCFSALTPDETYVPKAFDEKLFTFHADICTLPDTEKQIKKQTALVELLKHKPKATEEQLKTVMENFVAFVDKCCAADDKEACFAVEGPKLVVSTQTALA

Row | Substance | binding of peptide probe to Aβ42 fiber (peptide band in pellet, SDS-PAGE) [1] | capture of labeled peptide probe with biotinylated Aβ42 oligomer on streptavidin beads (SDS-PAGE) [2] | conformation in the absence of Aβ fibers (CD, data not shown) [3] | conformation upon introduction of an Aβ fiber substrate (pyrene excimer fluorescence) [3] | maximal signal gain in the presence of fibrillar amyloid target protein relative to the reference peptide (SEQ ID NO:1) [4] | β sheet secondary structure (CD) ([5]; 4 μM peptide alone, room temperature) [%] | β sheet secondary structure (CD) ([5]; 4 μM peptide incubated with 33 nM synthetic Aβ42 oligomer) [%] | pyrene monomer (self) fluorescence (370-420 nm) versus Aβ42 oligomer concentration ([6]; 70 nM peptide, 0, 30, 100, 300 nM synthetic Aβ42 oligomer, 25 C, 3 hours (FIG. 13A)) | fluorescence over time in the absence of oligomer ([6]; 10 mM Hepes pH 7.0, room temperature, 0, 3, 18 hours (FIG. 11)) | reactivity with Aβ42 oligomers (transition from pyrene excimer fluorescence to pyrene self-fluorescence) ([6]; aqueous assay) | preferential binding by state of self-aggregation of Aβ protein ([6]; versus monomers, fibers and control proteins) | fluorescence response to Aβ40 fibers [7] | fluorescence response to Aβ40 monomer [8] | fluorescence response to Aβ42 fibers [9] | fluorescence response to Aβ42 monomer [10] | fluorescence response to BSA control [11] | fluorescence response to Anhydrase control [12]
1 | KLVFFAEDVGSNKGAIIGLMK (KLVFFAEDVGSNKGAIIGLMK) [SEQ ID NO:1, Aβ protein residues 16-35, with added C-Terminal Lys] | binding of target protein and peptide probe is clearly observed | labeled peptide probe is only detected in the captured material, in the presence of high molecular weight oligomers | primarily alpha helical | adopts a β-sheet conformation |  |  |  |  |  |  |  |  |  |  |  |  | 
2 | KLVFFAEDVGSNKHAIIELMK (KLVFFAEDVGSNKHAIIELMK) [Peptide 22, Salt bridge at G29H and G33E] |  | directly binds to biotinylated Aβ42 oligomer |  |  | about 2.6 times | 36 | 43 | increases with Aβ42 oligomer concentration in a dose-dependent manner | stable over time | react with Aβ42 oligomers | preferentially binds to Aβ protein in the form of soluble Aβ oligomers | no change in fluorescence; also recorded: slight fluorescence response | no change in fluorescence | some dose-dependent increase in monomer fluorescence | no change in fluorescence; also recorded: slight fluorescence response | no change in fluorescence | no change in fluorescence
